Measured values as given in patent publication US20130331552A1.

B1: AT10-004 mutant C (antibody, V domains shown)
VH: RASQSVSRFLA
VL: RASQSVSRFLA
B2: AT10-004 mutant B (antibody, V domains shown)
VH: RASQSVSRYLA
VL: RASQSVSRYLA

Biological target: recombinant influenza HA3-protein (from H3N2, Wyoming, March 2003, Sino Biological Inc.) (influenza H3N2, Wyoming, March 2003)
Assay: SPR imaging (IBIS MX96), antibody captured on anti-human-IgG chip, HA3 injected at 1 µg/ml, global 1:1 fit

Binder | Kd [nM] | koff [s⁻¹] | kon [M⁻¹ s⁻¹]
B1 | 0.06 | 1e-06 | 17000
B2 | 0.05 | 1e-06 | 19000
